Laboratory results: the nanobody polyreactivity screen of Harvey et al. (2022)

test: yeast display, Sf9 membrane polyspecificity reagent, FACS + sequencing; frameworks hold sequencing errors
Method in brief: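 Nanobodies came from a synthetic yeast display library in Saccharomyces cerevisiae BJ5465, induced with galactose for 36–48 hours and stained for 1 hour at 4 °C with 10% biotinylated, detergent-solubilized Sf9 membrane reagent. Cells were enriched on streptavidin microbeads and then FACS-sorted, with low and high (top ~1%) gates set on anti-HA fluorescence for expression and streptavidin fluorescence for reagent binding. Each polyreactivity label reflects the gate a clone came from. Genes were amplified by colony PCR, sequenced by MiSeq 2 × 250 and filtered by CDR length.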

| Sequence | polyreactivity (PSR sort gate) |
| --- | --- |
| QVQLEESAGGLVQAGGSHRLSCADTGRTFRWYAMGWYRQAPGKERELVAAISRNGGSTSFADSVKGRFTISRDNAKKTVYLQLNSLKPEDTAVYYCAAGSRVQWYGYDYWGQGTQVTVSS | high polyreactivity |
| QVQLEESAGGLVQAGGSLRLSCAASGFTLYYYSMGWYRKAPGKERELVAAIAVSGTSTYYADSVKGRFTISRDNAKNTVYLQMNSLKPEDTAVYYCNKVFRVYQTFKAWGRDYWGQGTQVTVSS | high polyreactivity |
| QVQLEESAGGLVQAGGSLRLSCAASGSSFTSYAMGWYRQAPGKERELVAAITSGGSTTYADSVKGRFTISRDNEKNTVYLQMNSLKPEDTAVYYCNAKWYGYLTRDAYRYRYTYDYWGQGTQVTVSS | low polyreactivity |
| QVQLEESAGGLVQAGGSLRLSCAASGSTFYLNAMGSYRQAPGKERELVAAITVSGGSTYYADSVKGRFTISRDNAKNTVYLQMNSLKPEDNAVYYCARELLSPTYQRWYYYWGQGSQVTVSS | low polyreactivity |
| QVQLEESGAGLVQAGGSLRLSCAASGRIFTVYAMGWYRHAPGKEREFVAAIRSSGGRTYYADSVKGRFTISRDNEKNTVYLQMNSLNPEDTAVYYCAASVTGPSGADYYYWGQGTQVTVSS | high polyreactivity |
| QVQLEESGARIVQAGGSLRLSCAASGITLAGYVMGWYRQAPGKERELVADISSSGDSTYYADSVNGRFTISRDNAKNTVYLQMNSLKPEDTAVYYCAAEEIIPLIYKGYPFDYWGQATQVTVSS | low polyreactivity |
| QVQLEESGGCLVQAGGSLRLICAASGSTFDANAMGWYRQAPGKERELVATISDGGSTNYADSVKGRFTISRDNAKNTVYLQMNSLKPEDTSVYYCAALWYYGGKSACPGGGYWGQGTQVTVSS | low polyreactivity |
| QVQLEESGGCLVQEGGSLRLSCAASGIIFTSNTLGWYRQAPGKEREFVASINWNGSSTYADSVKGRFTISRDNAKNTVYLQMNSLKPEDTAVYYCNADYNRNSVQFSLYDYWGQGTQVTVSS | low polyreactivity |
| QVQLEESGGGIVQAGGSLRLSCAASGSIIILYAMGWSRQAPGKEREFVAAITWSGGSTYYADSVKGRFTISRDNAKNTVYLQMNSLKPEDTAVYYCAARIRTVAHVDYDYWGQGTQVTVSS | high polyreactivity |
| QVQLEESGGGLDQAGGSLRLNCAASGLISVYYVRGWYIQAPGKELELVAAINRSGGNTYYADSVKGRFTISRDNAQNTVNLQMNRLKPDVTAVYYCKASLYFYRYGHDYESDYWGQGTQVTVSS | high polyreactivity |
| QVQLEESGGGLFQAGGSLRLICAASGRICDVNAMGWYRQAPGKERELVAAISWSGGITYYADSVKGRFTISRDNAKNTVYLQMNSLKPEDTAVYYCAADKYQGYTFYQGYPGGGGYWGQGTQVTVSS | low polyreactivity |
| QVQLEESGGGLFQAGGSLRLSCAASGLNFGQNVMGWYRQAPGKERELLAAIRESGGRTYYADSVKGRFTISRDNAKNTFYIQMNSLNPEDTAVYYCRAYWRYSRYDYWGQGTQVTGSS | high polyreactivity |
| QVQLEESGGGLFQAGGSLRLSCAASGRIFDPYAMGWYRQAPGKERDLVATITLRGGITYYADSVKGRFTISRDNAKNTVYLQMNSLKPEDTAVYYCAKKVRSYVRWEYDYWGQGTQVTVSS | low polyreactivity |
| QVQLEESGGGLVQAGGILRFSCAASGYTFRGYAMGWYRQAPGKEREFVAAIRNSGDSSYYADSVKGRFTISRDNAKNTVYLQRHSLKPEDTAVYYSAAYSRSSKYDYWGQGSQVTVSS | low polyreactivity |
| QVQLEESGGGLVQAGGILRLSCAASGFIIRRNALGLYRKAAGQERELVATIRASGGRTYYADSVKGRFTISRDNAKNTVYLQMNSVKPEDTAVYYCAAFRWYKPHDYWGQGTQVTVSS | high polyreactivity |
| QVQLEESGGGLVQAGGRLRLSCAASGPIFGYYAMGWYRQAPGKERELVAGIDWSGGNTYYADSVKGRFTISRDNAKYTVYLQMNSLKPEDTAVYYCNTEGGRDTAWYDYWGQGTQVTVSS | low polyreactivity |
| QVQLEESGGGLVQAGGRLRLSCAASGSIFYVYAMGWYRQAPGKERELVASINKSGGSTYFADSVKGRFTISRDNAKNTVYLQMNSLKPEDTAVYYCAARTGWPRVGFQYPAHVGFDYWGQGTQVTVSS | low polyreactivity |
| QVQLEESGGGLVQAGGRLRLTCAASGLTFYANAMGWYRQAPGKERELVATISVGTDSTNYADSVKGRFTISRDNAKNTVYLQMTSMKPEDTAVYYCKALYEEYYAQDPYDYWGQGTQVTVSS | high polyreactivity |
| QVQLEESGGGLVQAGGSHRLSCAASGITFSLYAMGWYRQAPGKERELVATIDSGGSTNYADSVKGRFTISRDNAKNTVYLQMNSLIPEDTAVYYCAADGVWYYYDMDYWGQGTQVTVSS | low polyreactivity |
| QVQLEESGGGLVQAGGSLRISCAASGLIFRTNAIGWYRQAPGKERELVAAISWSTGSTYYADSVKGRFTISRDNAKNTVYLQMNSLKPEDTAVYYCARTLRWTYRYGYWGQGTQVTVSS | high polyreactivity |

| Sequence | polyreactivity (PSR sort gate) |
| --- | --- |
| QVQLEESGGGLVQAGGSLRISCAASGRTFRRYAMGWYRQAPGKERELVATISRGGSTYYADSVKGRFTISRDNAKNTVYLQMNSLKPEDTAVFYCAAQRQVIYASEENYWGQGTQVTVSS | high polyreactivity |
| QVQLEESGGGLVQAGGSLRLAVLPPDLPSTLNDMGWYRQAPGKERELVAAITRGGSTNYADSVKGRFTISRDNAKNTVYLQMNSLKPEDTAVYYCAAPYAGWRDGGDYWGQGTQVTVSS | low polyreactivity |
| QVQLEESGGGLVQAGGSLRLICAASGGTFSYNAMGWYRQAPGKERELVAAISWSGTRTYYADSVKGRFTISRDNEKNTVYLQMNSLKPEDTAVYYCNADSDTPRYDYWGLGTQVTVSS | low polyreactivity |
| QVQLEESGGGLVQAGGSLRLICAAYGSIIPYNAMGWYRQQPGEFVDAISYSSGSTYYADSVKGRFTISRDNAKNTVYLQMNSLKPEDTAVYYCAAGSWYPPSYVWLRRYDYWGQGTQVTVSS | low polyreactivity |
| QVQLEESGGGLVQAGGSLRLSCAASGFIFGPYAMGWYRQAPGKERELVAAMSSSGGSTSYEDSVKGRFTISRDNAKNTVYLQMNSLKPEDTAVYYCAARGRYRLYSNYYDYWGQGTQVNVSS | high polyreactivity |
| QVQLEESGGGLVQAGGSLRLSCAASGFIFSRYDMGWYRQAPGKERELVAAITSGGSTYYADSVKGRFTISRDNAKNTVYLQMNSLKPEDTAVYYCNAYVRSDYDYWGQGTQVTVSS | high polyreactivity |
| QVQLEESGGGLVQAGGSLRLSCAASGFIYVKYAMGWYRQAPGKERELVAAITNGGSTYYADSVKGRFTISRDNAKYTVYLQMNSLKPEDTAVYYCAAQYHDWWRRLLYRSFRPFDYWGQGTQVTVSS | low polyreactivity |
| QVQLEESGGGLVQAGGSLRLSCAASGFNFAAYTMGWNRQAPGKEREWVAGISKRGGTTYYADSVKGRFTISRDNAKNTVYLQMNSLKPEDTAVYYCAASRYVTTSRYQYNHWGQGTQVTVSS | high polyreactivity |
| QVQLEESGGGLVQAGGSLRLSCAASGFTFGFYAMGWYRQAPGKERELVARISYSGGSTYYADSVKGRFTISRDNAKNTVYLQMNSLKPEDTAVYYCNRGYRRLQEDYWGQGTQVTVSS | high polyreactivity |
| QVQLEESGGGLVQAGGSLRLSCAASGFTFKRYAMGSYRQAPGKEREFVAAITRGGGSTYYADSVKGRFTISRDNAKNSVYLQMNSLKPEDTAVYYCAADPQYTIRDYWGQGTQVTVSS | high polyreactivity |
| QVQLEESGGGLVQAGGSLRLSCAASGFTFPTNAMGWYRQAPGKERELVATISLGAGSTHYADSVKGRFTISRDNAKNTVYLQMNSLKPEDTAVYYCAARSRRWYDYDYWGQGTQVTVSS | low polyreactivity |
| QVQLEESGGGLVQAGGSLRLSCAASGFTFSLYGMGWYRQAPGKERELVAAIRSGGSTNYADSVKGRFTISRDNAKNTVYLQMNSLKPEDTAVYYCATDIHSVNNNRDKHDYDYWGQGTLVTVSS | low polyreactivity |
| QVQLEESGGGLVQAGGSLRLSCAASGFTFSTNSMGWYRPAPGKERELVAAISRGGSTNYADSVKGRFTISRDNAKNTVYLQMNSLKPEDTAVYYCNAYQSPDEEEYYWGQGTQVTVSS | low polyreactivity |
| QVQLEESGGGLVQAGGSLRLSCAASGFTFYRDTMGGYRQAPGKERELFAAITRDGSTYYADSVKGRFTISRDNAKYTVSLQLNSLKPEDTAVYYWNARGTVPWYGYDYWGQGTQVNVSS | high polyreactivity |
| QVQLEESGGGLVQAGGSLRLSCAASGFTFYYYAMGWYRQAPGKERELVAAINTSGGSTYYADSVKGRFTNSRDNAKNTVYLQMNSLKPVDTAVYYCAAVDGFWTQYPRMGYWGQGTQVTVSS | high polyreactivity |
| QVQLEESGGGLVQAGGSLRLSCAASGGTFGQYTMGWYRQAPGKERELVAAISTRGGSTNYADSVKGRFTISRDNAKNTVYLQMNSLKPEDTAVYYCAAKDKGRYYENVGRRGLDYWGQGTQVTVSS | high polyreactivity |
| QVQLEESGGGLVQAGGSLRLSCAASGGTFYYSPMGWDREPPGKERELVAAIRWRGGNTYYADSVKGRFTISLDNAKNTVYLQMNSVKPEDTAVYYCAAQTHDYNRYVGTTAYDYWGQGTQVTVSS | low polyreactivity |
| QVQLEESGGGLVQAGGSLRLSCAASGIIFGRYAMGWYRQAPGKQRELVAAITSGGSTSYADSVKGRFTISRDNAKNTVYLQMNSLKPEDTAVYYCAVVFVWGWPGYYWGQGTQVTVSS | high polyreactivity |
| QVQLEESGGGLVQAGGSLRLSCAASGIIFRLYGMGWYRQAPGKEREFVATITWRGGRTNYADSVKGRFTISRDNAKNTVYLQMNSLTPEDTAVYYCANVVRYARSNEYDSSGQGTQVTVSS | low polyreactivity |
| QVQLEESGGGLVQAGGSLRLSCAASGIIIVRNAMGWYRQAPGKEREFVAAISSSGGSTYYADSVKGRFTISRDNGKNTVYLQMNSLNPEDTAVYNCNARHRQWARGYWGQGTQVTVSS | high polyreactivity |
